First the molecules themselves.
B1: 3.1.9-1 (antibody, human IgG1, kappa, V domains shown)
VH: QVQLLQSGAAVTKPGASVRVSCEASGYNIRDYFIHWWRQAPGQGLQWVGWINPKTGQPNNPRQFQGRVSLTRHASWDFDTFSFYMDLKALRSDDTAVYFCARQRSDYWDFDVWGSGTQVTVSS
VL: DIQMTQSPSSLSARVGDTATITCQANGYLNWYQQRRGKAPKLLIYDGSKLERGVPARFSGRRWGQEYNLTINNLQPEDVATYFCQVYEFFGPGTRLDLKR
B2: 1.1.118-1 (antibody, human IgG1, kappa, V domains shown)
VH: B1 VH
VL: B1 VL with R14S, T18R, A56S, R61S, N68I, N72S, N73S, V79I
B3: 2.3.13-1 (antibody, human IgG1, kappa, V domains shown)
VH: B1 VH with Q3H, L5S, L90V, V97I
VL: B1 VL with T18R, R61S, N68I, N72S, N73S
B4: 2.2.13-1 (antibody, human IgG1, kappa, V domains shown)
VH: B1 VH with Q3H, L5S, N28K, Y32H, L90V, V97I
VL: B1 VL with T18R, R61S, N68I, N72S, N73S
B5: 3.1.17-1 (antibody, human IgG1, kappa, V domains shown)
VH: B1 VH
VL: B1 VL with N68H
B6: 1.1.104-1 (antibody, human IgG1, kappa, V domains shown)
VH: B1 VH
VL: B1 VL with R14S, A56S, N68T, V79I
B7: 2.2.12-1 (antibody, human IgG1, kappa, V domains shown)
VH: B1 VH with Q3H, L5S, N28K, Y32H, L90V, V97I
VL: B1 VL with N68I
B8: 2.2.15-1 (antibody, human IgG1, kappa, V domains shown)
VH: B1 VH with Q3H, L5S, N28K, Y32H, L90V, V97I
VL: B1 VL with N68T
B9: 3.1.15-1 (antibody, human IgG1, kappa, V domains shown)
VH: B1 VH
VL: B1 VL with N68T
B10: 2.2.9-1 (antibody, human IgG1, kappa, V domains shown)
VH: B1 VH with Q3H, L5S, N28K, Y32H, L90V, V97I
VL: B1 VL
B11: 3.1.12-1 (antibody, human IgG1, kappa, V domains shown)
VH: B1 VH
VL: B1 VL with N68I
B12: 2.3.9-1 (antibody, human IgG1, kappa, V domains shown)
VH: B1 VH with Q3H, L5S, L90V, V97I
VL: B1 VL
B13: 1.1.78-1 (antibody, human IgG1, kappa, V domains shown)
VH: B1 VH
VL: B1 VL with R14S, A56S, N68H, V79I
B14: 1.1.119-1 (antibody, human IgG1, kappa, V domains shown)
VH: B1 VH
VL: B1 VL with R14S, T18R, A56S, R61S, N68T, N72S, N73S, V79I
B15: 2.3.7-1 (antibody, human IgG1, kappa, V domains shown)
VH: B1 VH with Q3H, L5S, L90V, V97I
VL: B1 VL with T18R, R61S, N68T, N72S, N73S
B16: 1.1.117-1 (antibody, human IgG1, kappa, V domains shown)
VH: B1 VH
VL: B1 VL with R14S, A56S, N68I, V79I
B17: 2.3.12-1 (antibody, human IgG1, kappa, V domains shown)
VH: B1 VH with Q3H, L5S, L90V, V97I
VL: B1 VL with N68I
B18: 3.1.7-1 (antibody, human IgG1, kappa, V domains shown)
VH: B1 VH
VL: B1 VL with T18R, R61S, N68T, N72S, N73S
B19: 2.2.17-1 (antibody, human IgG1, kappa, V domains shown)
VH: B1 VH with Q3H, L5S, N28K, Y32H, L90V, V97I
VL: B1 VL with N68H
B20: 3.1.13-1 (antibody, human IgG1, kappa, V domains shown)
VH: B1 VH
VL: B1 VL with T18R, R61S, N68I, N72S, N73S
B21: 2.3.15-1 (antibody, human IgG1, kappa, V domains shown)
VH: B1 VH with Q3H, L5S, L90V, V97I
VL: B1 VL with N68T
B22: 2.2.7-1 (antibody, human IgG1, kappa, V domains shown)
VH: B1 VH with Q3H, L5S, N28K, Y32H, L90V, V97I
VL: B1 VL with T18R, R61S, N68T, N72S, N73S

Data on 22 molecules can be found in patent US20240034774A1.

Changes are numbered by the printed parent chain. Bounds are passed on as bounds.

One test has as its target HIV-1 envelope glycoprotein gp120 of virus 7141 (HIV-1). Kind of test: cell-based or functional assay.
Turning to B1, the neutralization IC50 came out at 4.35 µg/mL.

B2 showed a neutralization IC50 of 20.2 µg/mL.

B3 yielded a neutralization IC50 of 15.5 µg/mL.

B4 returned a neutralization IC50 of 3.8 µg/mL.

In turn, B5 displayed a neutralization IC50 of 25.5 µg/mL.

On to B6, for which the neutralization IC50 turned out to be 5.13 µg/mL.

Regarding B7, the neutralization IC50 is 7.08 µg/mL.

B8 came in with a neutralization IC50 of 1.99 µg/mL.

For the molecule B9, the neutralization IC50 was found to be 9.1 µg/mL.

In turn, B10 yielded a neutralization IC50 of 1.75 µg/mL.

As for B11, the neutralization IC50 came out at 24.5 µg/mL.

In turn, B12 yielded a neutralization IC50 of 2.56 µg/mL.

Consider B13, for which the neutralization IC50 turned out to be 29.5 µg/mL.

The molecule B14 had a neutralization IC50 of 6.92 µg/mL.

Take B15: the neutralization IC50 stood at 5.08 µg/mL.

In the case of B16, the neutralization IC50 is 16.9 µg/mL.

B17: the neutralization IC50 was 23.8 µg/mL.

With B18, the neutralization IC50 worked out at 5.65 µg/mL.

As for B19, the neutralization IC50 is 6.28 µg/mL.

B20 came in with a neutralization IC50 of 13.2 µg/mL.

In turn, B21 yielded a neutralization IC50 of 5.93 µg/mL.

In turn, B22 had a neutralization IC50 of 1.58 µg/mL.

A further test deals with HIV-1 envelope glycoprotein gp120 of virus 92US727 (HIV-1). Kind of test: cell-based or functional assay.
B1 registered a neutralization IC50 of 3.54 µg/mL.

In the case of B2, the neutralization IC50 was greater than 50 µg/mL.

In the case of B3, the neutralization IC50 was greater than 38 µg/mL.

For B4, the neutralization IC50 was greater than 50 µg/mL.

On to B5, for which the neutralization IC50 is greater than 50 µg/mL.

B6: the neutralization IC50 was greater than 50 µg/mL.

In the case of B7, the neutralization IC50 was greater than 50 µg/mL.

In turn, B8 showed a neutralization IC50 greater than 50 µg/mL.

Consider B9, for which the neutralization IC50 was greater than 33 µg/mL.

Molecule B10 registered a neutralization IC50 of 13.1 µg/mL.

For the molecule B11, the neutralization IC50 is greater than 41 µg/mL.

B12 had a neutralization IC50 of 11.1 µg/mL.

B13 had a neutralization IC50 greater than 50 µg/mL.

As to B14, the neutralization IC50 was greater than 50 µg/mL.

With B15, the neutralization IC50 is greater than 50 µg/mL.

On to B16, for which the neutralization IC50 was greater than 50 µg/mL.

Take B17: the neutralization IC50 is greater than 50 µg/mL.

In turn, B18 displayed a neutralization IC50 greater than 50 µg/mL.

As to B19, the neutralization IC50 is greater than 50 µg/mL.

Take B20: the neutralization IC50 was greater than 21 µg/mL.

In the case of B21, the neutralization IC50 is greater than 50 µg/mL.

Molecule B22 came in with a neutralization IC50 greater than 50 µg/mL.

The next test concerns the target HIV-1 envelope glycoprotein gp120 of virus VS001 (HIV-1). Kind of test: cell-based or functional assay.
In turn, B1 yielded a neutralization IC50 of 0.16 µg/mL.

Regarding B2, the neutralization IC50 is 2.4 µg/mL.

In turn, B3 came in with a neutralization IC50 of 1.5 µg/mL.

As for B4, the neutralization IC50 was determined as 1.48 µg/mL.

In the case of B5, the neutralization IC50 was 2.21 µg/mL.

As to B6, the neutralization IC50 is 0.45 µg/mL.

With B7, the neutralization IC50 worked out at 2.1 µg/mL.

In turn, B8 had a neutralization IC50 of 0.37 µg/mL.

Molecule B9 displayed a neutralization IC50 of 0.49 µg/mL.

Molecule B10 returned a neutralization IC50 of 0.15 µg/mL.

On to B11, for which the neutralization IC50 was determined as 2.41 µg/mL.

On to B12, for which the neutralization IC50 turned out to be 0.22 µg/mL.

On to B13, for which the neutralization IC50 is 3.3 µg/mL.

As for B14, the neutralization IC50 stood at 0.39 µg/mL.

For B15, the neutralization IC50 came out at 0.47 µg/mL.

In turn, B16 showed a neutralization IC50 of 3.03 µg/mL.

Turning to B17, the neutralization IC50 turned out to be 1.92 µg/mL.

B18: the neutralization IC50 was 0.3 µg/mL.

The molecule B19 came in with a neutralization IC50 of 4.38 µg/mL.

The molecule B20 registered a neutralization IC50 of 0.56 µg/mL.

For B21, the neutralization IC50 came out at 0.85 µg/mL.

The molecule B22 returned a neutralization IC50 of 0.27 µg/mL.
